Results as given in patent US20140255304, “TDP-43 SPECIFIC BINDING MOLECULES” (BIOGEN IDEC INTERNALTIONAL NEUROSCIENCE GMBH, published 2014).

Target: TDP-43 full length (residues 1-414) (Homo sapiens, UniProt Q13148 SEQ:1-414)
Experiment: FP; at least 30-fold higher affinity than for U12 control; 40 mM HEPES, 0.5 M KCl, 0.4 M arginine, pH 7.4, 25 C
Settings: tags: N-terminal 6xHis-SUMO, expressed in E. coli BL21(DE3) Star; label: 5' TYE fluorophore
Procedure: Equilibrium binding affinities of TDP-43 constructs for RNA were determined using fluorescence polarization. 5′TYETM fluorophore labeled RNA substrates, specific RNA (TYETM-[…]) (SEQ ID NO: 312) and RNA control (TYETM-[…]) (SEQ ID NO: 313) (integrated DNA Technologies), were incubated at a concentration of 5 nM for 30 min at 25° C. with TDP-43 (final concentrations 0 to 20 μM) in incubation buffer as indicated. Fluorescence polarization was measured with the plate reader fluorometer Envision (PerkinElmer) at each concentration of TDP-43 in a 96 well plate format with an excitation at 645 nm and emission at 665. Kds were calculated using the quadratic equation for tight binding (Morrison equation) using Sigmaplot (Systat Software Inc.). […] Stoichiometries were calculated by measuring the intercept of two straight lines, one fit using data points of the partially bound state, and the other using data points of the fully bound state.
The recombinant full-length TDP-43 was monomeric by sedimentation analysis (FIG. 8C) in buffer containing 400 mM arginine.

Sequence of TDP-43 full length (residues 1-414) (Q13148 whole entry, the tested form may be a part): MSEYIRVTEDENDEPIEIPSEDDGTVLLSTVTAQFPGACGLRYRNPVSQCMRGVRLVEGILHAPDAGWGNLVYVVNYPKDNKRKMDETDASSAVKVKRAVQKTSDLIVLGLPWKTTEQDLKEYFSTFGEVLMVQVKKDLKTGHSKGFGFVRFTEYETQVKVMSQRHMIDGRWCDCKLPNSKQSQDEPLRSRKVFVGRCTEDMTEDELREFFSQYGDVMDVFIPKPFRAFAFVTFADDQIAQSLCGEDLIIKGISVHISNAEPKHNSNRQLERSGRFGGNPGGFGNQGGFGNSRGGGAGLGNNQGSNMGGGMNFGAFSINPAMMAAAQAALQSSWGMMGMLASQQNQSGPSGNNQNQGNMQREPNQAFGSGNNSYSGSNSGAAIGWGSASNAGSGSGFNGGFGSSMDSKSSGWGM

B1: (UG)6 specific RNA (ssRNA)
RNA: UGUGUGUGUGUG
With B1 the binding signal was ≥ 30 fold.
